Assay results reported in EP0969015A2, “Peptide diagnostic markers for human disorders” (Ortho-Clinical Diagnostics, Inc., priority 1998, dated 2000).

Key:
[1] = Stability of peptides in urine samples; conditions: compared with the gluten/casein related peptides; not studied in a systematic manner
[2] = relative to morphine; cited from earlier work

| Substance | stability in urine [1] | opiate activity [2] |
| --- | --- | --- |
| NH4-Tyr AlaPheGluValValGly-COOH (H-YAFEVVG-OH) [deltorphin II] | more stable in urine than the gluten/casein related peptides |  |
| NH4-TyrAlaPheGlyTyrProSer-COOH [dermorphin] | more stable in urine than the gluten/casein related peptides | 1000 times |
